The values below come from patent EP4667483A1 (JCR Pharmaceuticals Co., Ltd., dated 2024).

Numbered stars: 1 amine (or outer) side, 2 acyl side, 3 side chain; on linkers, the order of the positions; unused ones are H or OH. Bridge positions count the residues as written; N and C are the ends. Square brackets hold non-standard residues; d marks the D form. * marks the point of attachment. F4aao = 4-(carboxymethoxy)-L-phenylalanine, O=C([C@H](Cc1ccc(OCC(=O)[*:3])cc1)N[*:1])[*:2]; X4 = 4‑(carboxymethyl)piperazine‑1‑carbonyl, O=C(O)CN1CCN(C(=O)*)CC1; NH(1-deoxy-D-glucityl) = OC[C@@H](O)[C@@H](O)[C@H](O)[C@@H](O)CN*; PEG4c = amino-tetraoxa (PEG4) carboxylic acid spacer; NMePhe(4-COOH) = CN[C@@H](Cc1ccc(C(=O)O)cc1)C(=O)O; Phe(3-COOH) = N[C@@H](Cc1cccc(C(=O)O)c1)C(=O)O; NMePhe(3-Cl) = CN[C@@H](Cc1cccc(Cl)c1)C(=O)O; Piperazinyl(4-CH2COOH) = O=C(O)CN1CCN(*)CC1; 3Pal(6-NH2) = Nc1ccc(C[C@H](N)C(=O)O)cn1; NMeW = CN[C@@H](Cc1c[nH]c2ccccc12)C(=O)O; Lys(N3) = [N-]=[N+]=NCCCC[C@H](N)C(=O)O; NMeY = CN[C@@H](Cc1ccc(O)cc1)C(=O)O; NMeF = CN[C@@H](Cc1ccccc1)C(=O)O

For experiment [1], the target named is T1, human transferrin receptor (hTfR) (human, UniProt P02786 89-760).
T1 construct: a His tag is implied by the NTA chip and the anti-His capture; also called human TfR; TfR1
The experiment in a line: SPR, pH 6.0. For orientation: SPR reads the build-up and loss of mass on a sensor chip optically.
T1 sequence (P02786 89-760 limits assumed): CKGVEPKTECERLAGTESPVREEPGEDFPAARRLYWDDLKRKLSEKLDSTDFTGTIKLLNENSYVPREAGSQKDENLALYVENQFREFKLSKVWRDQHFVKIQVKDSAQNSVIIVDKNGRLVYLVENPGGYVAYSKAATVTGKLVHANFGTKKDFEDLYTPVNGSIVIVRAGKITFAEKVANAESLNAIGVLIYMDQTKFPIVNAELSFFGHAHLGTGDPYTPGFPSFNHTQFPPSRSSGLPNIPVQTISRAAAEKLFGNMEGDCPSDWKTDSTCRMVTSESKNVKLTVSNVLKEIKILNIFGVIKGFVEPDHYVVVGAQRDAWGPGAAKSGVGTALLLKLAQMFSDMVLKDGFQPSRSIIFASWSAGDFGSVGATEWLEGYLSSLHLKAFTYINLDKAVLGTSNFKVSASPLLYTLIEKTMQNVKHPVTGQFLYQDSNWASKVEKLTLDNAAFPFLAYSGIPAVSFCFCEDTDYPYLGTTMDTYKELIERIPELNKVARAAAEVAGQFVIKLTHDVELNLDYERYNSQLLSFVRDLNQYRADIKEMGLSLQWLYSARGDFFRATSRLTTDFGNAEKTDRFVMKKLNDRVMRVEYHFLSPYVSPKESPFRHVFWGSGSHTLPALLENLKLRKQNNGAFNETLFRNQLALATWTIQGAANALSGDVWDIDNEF

The target in experiment [2] is T1, human transferrin receptor (hTfR). In words: SPR, pH 7.4.
Experiment [3] has the same target. The experiment in a line: SPR, KD pH 6.0 / KD pH 7.4.
Target sequence in this assay (P02786 89-760 limits assumed): as above
Experiment [4] has the same target. The experiment in a line: SPR, koff pH 6.0 / koff pH 7.4.
Target sequence in this assay (P02786 89-760 limits assumed): as above
Experiment [5] addresses T2, human transferrin receptor (hTfR) (human, UniProt P02786 89-760).
T2 construct: also called human TfR; TfR1
The experiment in a line: SPR; ratio of KD at pH 6.0 to KD at pH 7.4.
T2 sequence (P02786 89-760 limits assumed): as above

Experiment [6] has as its target T2, human transferrin receptor (hTfR). In words: SPR; ratio of koff at pH 6.0 to koff at pH 7.4.
Experiment [7] shares this target. The experiment in a line: SPR, Biacore T200, hTfR immobilised on NTA chip, pH 6.0.
Target sequence in this assay (P02786 89-760 limits assumed): as above
The target is the same in experiment [8]. The experiment in a line: SPR, Biacore T200, hTfR captured by anti-His antibody on CM3 chip, pH 7.4.
Target sequence in this assay (P02786 89-760 limits assumed): as above
For experiment [9], the target named is T3, human transferrin receptor (hTfR) (human, UniProt P02786 89-760).
T3 construct: also called human TfR; TfR1
In words: SPR, Biacore T200, pH 7.4, hTfR captured by anti-His antibody on CM3 chip, single-cycle kinetics.

The target of experiment [10] is T2, human transferrin receptor (hTfR). The experiment in a line: SPR, Biacore T200, hTfR captured by anti-His antibody on CM3 chip, pH 7.4. The source holds these as a separate data set.
Experiment [11] has the same target. In words: SPR; ratio of KD at pH 6.0 to KD at pH 7.4. This is another data set of the same source.
Experiment [12] shares this target. In words: SPR, Biacore T200, hTfR immobilised on NTA chip, pH 6.0. The source holds these as a separate data set.
Experiment [13] has the same target. In words: SPR; ratio of koff at pH 6.0 to koff at pH 7.4. This is another data set of the same source.
In experiment [14] the target is T1, human transferrin receptor (hTfR). In words: SPR, pH 7.4. The source holds these as a separate data set.
For experiment [15] the target is unchanged. In words: SPR, pH 6.0. The source holds these as a separate data set.
Experiment [16] addresses T4, human transferrin receptor (hTfR) (human, UniProt P02786 89-760).
T4 construct: Recombinant hTfR; at pH 7.4 captured on the chip by an anti-His tag antibody, at pH 6.0 immobilized on an NTA chip, so it carries a His tag; also called human TfR; TfR1
The experiment in a line: SPR, koff at pH 6.0 over koff at pH 7.4.

The target in experiment [17] is T4, human transferrin receptor (hTfR). The experiment in a line: SPR (Biacore T200), pH 6.0, hTfR on chip.
For experiment [18] the target is unchanged. In words: SPR, KD at pH 6.0 over KD at pH 7.4.
Experiment [19] has the same target. In words: SPR (Biacore T200), pH 7.4, hTfR on chip.

By Kd is commonly meant the concentration at which binding is half-saturated. For the molecule {CH2CO}-AV[NMePhe(3-Cl)]VWNY[F4aao](Piperazinyl(4-CH2COOH))IIE(NH(1-deoxy-D-glucityl))QF[NMeY]C-{PEG4c-NH2} (thioether N-15) [894_0510 (SEQ ID NO: 37)], the Kd in [1] is 27.9 nM; in experiment [2] it was 1.54 nM. In addition, in [3], the “dependency KD pH6.0/7.4” value worked out at 18.1. Besides, the “dependency koff pH6.0/7.4” value in experiment [4] is 33.9.

B1: 894_0591 (SEQ ID No. 117) (peptide)
peptide: AVXVXNYYXIKRYXC
modifications: not fully specified; MeF at 3; MeW at 5; Eva at 9; MeY at 14; cyclic: chloroacetylated N-terminal Ala 1 joined to Cys 15; linker PEG4c on C-terminus
notes: As printed: A-V-MeF-V-MeW-N-Y-Y-Eva-I-K-R-Y-MeY-C, linker PEG4c
In the case of B1, the “dependency KD pH6.0/7.4” value in experiment [5] was 1.81. Further, in experiment [6], the “dependency koff pH6.0/7.4” value was 3.29. The Kd in experiment [7] amounted to 13.8 nM; in experiment [8], 7.64 nM.

B2: 894_3495 (SEQ ID NO: 199) (peptide)
peptide: AVXVWNRYIIRRYXC
modifications: MeF at 3; MeY at 14; N-terminal Ala chloroacetylated and cyclised by thioether to Cys 15; linker G-de-de-de-ds-ds-KN3-NH2 on Cys 15 (de = D-Glu, ds = D-Ser, KN3 = azido-lysine, C-terminal amide)
notes: Cyclic peptide with linker
Take B2: the Kd in experiment [9] is 531 nM.

Consider {CH2CO}-AV[NMePhe(3-Cl)]VWNY[F4aao](Piperazinyl(4-CH2COOH))IIK(X4)QF[NMeY]C-{PEG4c-NH2} (thioether N-15) [894_0511 (SEQ ID NO: 38)], for which the Kd turned out to be 14.8 nM in experiment [1] and 4.75 nM in experiment [2]. For the same molecule, the “dependency KD pH6.0/7.4” value in experiment [3] is 3.12. In experiment [4], the “dependency koff pH6.0/7.4” value was determined as 12.5.

B3: 894_3493 (SEQ ID NO: 198) (peptide)
peptide: AVXVWNRYIIRRYXC
modifications: MeF at 3; MeF4COO at 14; N-terminal Ala chloroacetylated and cyclised by thioether to Cys 15; linker G-de-de-de-ds-ds-KN3-NH2 on Cys 15 (de = D-Glu, ds = D-Ser, KN3 = azido-lysine, C-terminal amide)
notes: Cyclic peptide with linker
Molecule B3 had a Kd in experiment [9] of 1040 nM.

On to {CH2CO}-AV[NMePhe(3-Cl)]VWNY[F4aao](NH(1-deoxy-D-glucityl))IIE(NH(1-deoxy-D-glucityl))QF[NMeY]C-{PEG4c-NH2} (thioether N-15) [894_0512 (SEQ ID NO: 39)], for which the results for the Kd in experiment [1] and in experiment [2] were 12.4 nM and 1.48 nM, respectively. Moreover, the “dependency KD pH6.0/7.4” value in experiment [3] worked out at 8.37. The “dependency koff pH6.0/7.4” value in experiment [4] was 25.6.

B4: 894_0592 (SEQ ID No. 118) (peptide)
peptide: AVXVXNYYIIKRYXC
modifications: not fully specified; MeF at 3; MeW at 5; MeF4COO at 14; cyclic: chloroacetylated N-terminal Ala 1 joined to Cys 15; linker PEG4c on C-terminus
notes: As printed: A-V-MeF-V-MeW-N-Y-Y-I-I-K-R-Y-MeF4COO-C, linker PEG4c
For B4, in experiment [5], the “dependency KD pH6.0/7.4” value is 3.88. In [6], the “dependency koff pH6.0/7.4” value came out at 4.21. Further, the Kd in [7] came out at 4.31 nM; in [8] it was 1.11 nM.

B5: 894_0531 (SEQ ID No. 81) (peptide)
peptide: AVXVWNYXIIQRXXC
modifications: MeF3C at 3; F4OMe at 8; Eva at 9; F3COO at 13; MeF3COO at 14; cyclic: chloroacetylated N-terminal Ala 1 joined to Cys 15; linker PEG4c on C-terminus
notes: As printed: A-V-MeF3C-V-W-N-Y-F4OMe-Eva-I-Q-R-F3COO-MeF3COO-C, linker PEG4c
With B5, the Kd turned out to be 1.87 nM in experiment [10] and 9.19 nM in experiment [12]. For the same molecule, the “dependency KD pH6.0/7.4” value in experiment [11] stood at 4.91. The “dependency koff pH6.0/7.4” value in experiment [13] is 13.5.

B6: 894_3434 (SEQ ID NO: 64) (peptide)
peptide: AVXVWNYXIIRRYXC
modifications: 3 MeF; 8 F4aao(PEG8Me); 14 MeY; chloroacetyl-Ala1 cyclised to Cys15; linker G-KN3 after Cys15; terminus -NH2
notes: The linker G-KN3 (Gly, N6-diazo-L-lysine) follows Cys15; whether the listing entry holds these two residues cannot be seen here
Turning to B6, the Kd in [14] was 8.74 nM; in experiment [15], 32.3 nM.

B7: 894_0610 (SEQ ID NO: 61) (peptide)
peptide: AVXVXNYYIIKRYXC
modifications: 3 MeF3C; 5 3Imp; 14 MeY; chloroacetyl-Ala1 cyclised to Cys15; linker PEG4c after Cys15; terminus -NH2
As to B7, the Kd in experiment [14] stood at 0.861 nM; in experiment [15], 7.47 nM.

B8: 894_3486 (peptide)
peptide: {CH2CO}-AV[NMeF]V[NMeW]N[3Pal(6-NH2)]YIIKRY[NMePhe(4-COOH)]CG[Lys(N3)]-NH2
modifications: thioether N-15
SMILES: CC[C@H](C)[C@@H]1NC(=O)[C@H](Cc2ccc(O)cc2)NC(=O)[C@H](Cc2ccc(N)nc2)NC(=O)[C@H](CC(N)=O)NC(=O)[C@H](Cc2c[nH]c3ccccc23)N(C)C(=O)[C@H](C(C)C)NC(=O)[C@H](Cc2ccccc2)N(C)C(=O)[C@H](C(C)C)NC(=O)[C@H](C)NC(=O)CSC[C@@H](C(=O)NCC(=O)N[C@@H](CCCCN=[N+]=[N-])C(N)=O)NC(=O)[C@H](Cc2ccc(C(=O)O)cc2)N(C)C(=O)[C@H](Cc2ccc(O)cc2)NC(=O)[C@H](CCCNC(=N)N)NC(=O)[C@H](CCCCN)NC(=O)[C@H]([C@@H](C)CC)NC1=O
For B8, the “dependency koff pH6.0/7.4” value in [16] stood at 8.92. For the same molecule, the results for the Kd in experiment [17] and in experiment [19] were 13.9 nM and 2.94 nM, respectively. Moreover, in experiment [18], the “dependency KD pH6.0/7.4” value came out at 4.73.

B9: 894_0530 (SEQ ID No. 80) (peptide)
peptide: AVXVWNYXIIQRXXC
modifications: MeF3C at 3; F4OMe at 8; Eva at 9; F3COO at 13; MeF4COO at 14; cyclic: chloroacetylated N-terminal Ala 1 joined to Cys 15; linker PEG4c on C-terminus
notes: As printed: A-V-MeF3C-V-W-N-Y-F4OMe-Eva-I-Q-R-F3COO-MeF4COO-C, linker PEG4c
In the case of B9, the Kd in experiment [10] is 0.529 nM; in experiment [12], 5.73 nM. Moreover, the “dependency KD pH6.0/7.4” value in experiment [11] stood at 10.8. Moreover, the “dependency koff pH6.0/7.4” value in experiment [13] amounted to 22.2.

B10: 894_0518 (SEQ ID No. 72) (peptide)
peptide: {CH2CO}-AV[NMePhe(3-Cl)]VWNY[F4aao]IIQR[Phe(3-COOH)][NMeY]C-PEG4c
modifications: thioether N-15
notes: As printed: A-V-MeF3C-V-W-N-Y-F4aao-I-I-Q-R-F3COO-MeY-C, linker PEG4c
Consider B10, for which the Kd in experiment [10] was 3.34 nM; in experiment [12], 6.32 nM. Also, the “dependency KD pH6.0/7.4” value in [11] amounted to 1.89. Besides, in experiment [13], the “dependency koff pH6.0/7.4” value was found to be 5.72.
